The text below walks through data of patent US20140044730A1 (Regeneron, published 2014).

Numbering of substitutions follows the chain as printed.

Assay [1] addresses T1, human PCSK9 with a C-terminal myc-myc-hexahistidine tag (human, UniProt Q8NBP7 31-692, limits assumed).
T1 construct: also called hPCSK9-mmH; hPCSK9-mmh; not shown: C-terminal myc-myc-hexahistidine tag
As to the kind of experiment: SPR 25C, mAb captured.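 Note: biacore CM4 surface bearing anti-human Fc antibody capturing the mAbs, PCSK9 binding and release rates fitted with a one-to-one model, KD and half-life derived from those rates.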

Assay [2] has as its target human PCSK9 with a C-terminal myc-myc hexahistidine tag and a D374Y mutation (human, UniProt Q8NBP7 31-692, limits assumed). As to the kind of experiment: cell-based or functional assay.
The target of assay [3] is recombinant cynomolgus monkey PCSK9 with a C-terminal myc-myc hexahistidine tag (cynomolgus monkey, UniProt A8T662 31-692 (Macaca nemestrina entry), limits assumed). The assay can be described thus: cell-based or functional assay.
For assay [4], the target named is T1, human PCSK9 with a C-terminal …. The assay can be described thus: SPR 25C pH 7.2, mAb captured.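 Note: biacore SPR, antibodies captured on anti-human Fc CM4 chip with PCSK9 flowed as analyte, rate constants from a one-to-one kinetic fit, KD and half-life derived from them.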
The target is the same in assay [5]. As to the kind of experiment: SPR 25C pH 5.75, mAb captured.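 Note: biacore surface with anti-human Fc antibody capturing the antibodies, PCSK9 as analyte, one-to-one kinetic fit, KD as kd over ka, half-life derived from kd.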
Protocol: (§1) A Biacore CM4 sensor chip was derivatized with a monoclonal mouse anti-human Fc antibody to capture human antibodies. The histidine substitution variant anti-PCSK9 antibodies were captured onto the anti-human Fc sensor surface from culture medium after transient expression in Chinese hamster ovary (CHO) cells. […] Kinetic association (kₐ) and dissociation (kd) rate constants were determined by processing and fitting the data to a 1:1 binding model using Scrubber 2.0 curve fitting software. Binding dissociation equilibrium constants (KD) and dissociative half-lives (t_{1/2}) were calculated from the kinetic rate constants as: KD (M)=kd/kₐ; and t_{1/2} (min)=(In2/(60*kd).
Assay [6] has the same target. The assay can be described thus: blocking ELISA pH 7.2, 500 pM hPCSK9-mmH vs coated hLDLR EGFA-hFc, exp #1.
Description: (§2) The equilibrated sample solutions were then transferred to the LDLR EGFA-hFc coated plate prepared as described above.
Assay [7] has the same target. As to the kind of experiment: blocking ELISA pH 7.2, 500 pM hPCSK9-mmH vs coated hLDLR EGFA-hFc, exp #2.
Description: as §2
The target is the same in assay [8]. The assay can be described thus: cell-based or functional assay.
For assay [9] the target is unchanged. As to the kind of experiment: SPR 25C, purified mAb captured.
Protocol: as §1
(§3) Also included in these experiments were several control/comparator antibodies. All measurements were taken at 25° C.
Assay [10] shares this target. The assay can be described thus: SPR 25C pH 7.4, purified mAb captured.
Protocol: as §1
All measurements were taken at 25° C.
Assay [11] has the same target. The assay can be described thus: SPR 25C pH 6.0, purified mAb captured.
Protocol: as §1, §3
The target is the same in assay [12]. As to the kind of experiment: blocking ELISA, hPCSK9-mmH vs coated hLDLR EGFA-hFc.
Protocol: (§4) Briefly, hLDLR EGFA-hFc was coated at 2 μg/mL in PBS on a 96-well microtiter plate overnight at 4° C. followed by blocking with a solution of 0.5% (w/v) BSA in PBS.
(§5) The equilibrated sample solutions were then transferred to a LDLR EGFA-hFc coated plate.
Assay [13] shares this target. As to the kind of experiment: blocking ELISA pH 7.2, 500 pM hPCSK9-mmH vs coated hLDLR EGFA-hFc.
Protocol: as §4, §5
For assay [14] the target is unchanged. As to the kind of experiment: blocking ELISA pH 5.75, 500 pM hPCSK9-mmH vs coated hLDLR EGFA-hFc.
Protocol: as §4, §5

B1: Parental 300N (antibody, V domains shown)
VH: EMQLVESGGGLVQPGGSLRLSCAASGFTFSSHWMKWVRQAPGKGLEWVANINQDGSEKYYVDSVKGRFTISRDNAKNSLFLQMNSLRAEDTAVYYCARDIVLMVYDMDYYYYGMDVWGQGTTVTVSS
VL: not shown
notes: also called mAb 300N
As for B1, in assay [1], the “KD ratio pH 5.75/pH 7.2” value worked out at 1.15 and the “t½ ratio pH 5.75/pH 7.2” value amounted to 0.26. Moreover, in assay [2], the “IC50, LDL uptake in HepG2 cells, 2 nM hPCSK9-D374Y-mmH” value (“IC50 … 2 nM hPCSK9-D374Y-mmH” below) is 1.2 nM. In addition, in [3], the “IC50, LDL uptake in HepG2 cells, 50 nM MfPCSK9-mmH” value (shortened to “IC50 … 50 nM MfPCSK9-mmH”) stood at 10 nM. In assay [4], this molecule yielded an equilibrium dissociation constant (Kd) of 0.865 nM and a t½ of 48 min. Besides, in [5], binding was put at a Kd of 0.999 nM and the t½ came to 13 min. The molecule also returned an IC50 in assay [6] of 0.226 nM. Besides, in assay [7], the IC50 was determined as 0.153 nM.

B2: 300N(v1) (antibody, IgG1, V domains shown)
VH: B1 VH
VL: not shown
Turning to B2, the “IC50, LDL uptake in HepG2 cells, 100 nM hPCSK9-mmH” value in [8] was 28 nM. Moreover, in assay [9], the “KD ratio pH 6.0/pH 7.4” value worked out at 2.33, the “ka ratio pH 6.0/pH 7.4” value came out at 1.85, the “kd ratio pH 6.0/pH 7.4” value stood at 4.33 and the “t½ ratio pH 6.0/pH 7.4” value is 0.23. For the same molecule, in assay [10], the affinity, expressed as Kd, was 0.507 nM; the off-rate constant (koff) was determined as 7.03e-05 s⁻¹; the kon was 139000 M⁻¹ s⁻¹; the t½ stood at 164 min. In [11], this molecule displayed an equilibrium dissociation constant (Kd) of 1.18 nM, a koff of 0.000304 s⁻¹, a kon of 257000 M⁻¹ s⁻¹ and a t½ of 38 min. For the same molecule, in assay [12], the “IC50 ratio (pH 5.75/pH 7.2)” value was found to be 1.4. In addition, the IC50 in assay [13] was 0.19 nM. The molecule also returned a half-inhibitory concentration (IC50) in [14] of 0.266 nM.

B3: VK-T102H (antibody, V domains shown)
VH: B1 VH
VL: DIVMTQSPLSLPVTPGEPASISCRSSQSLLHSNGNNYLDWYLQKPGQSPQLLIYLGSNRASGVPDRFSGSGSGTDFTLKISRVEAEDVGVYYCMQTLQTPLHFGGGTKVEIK
notes: His variant of 300N
For the molecule B3, in assay [1], the “KD ratio pH 5.75/pH 7.2” value worked out at 1.17 and the “t½ ratio pH 5.75/pH 7.2” value is 0.33. In assay [4], this molecule registered a Kd of 1.03 nM and a t½ of 49 min. Besides, in assay [5], the Kd was 1.21 nM and the t½ worked out at 16 min.

B4: VK-Y37H (antibody, V domains shown)
VH: B1 VH
VL: not shown
notes: His variant of 300N
Regarding B4, in [1], the “KD ratio pH 5.75/pH 7.2” value was found to be 72.3 and the “t½ ratio pH 5.75/pH 7.2” value stood at 0.54. In addition, in assay [4], the Kd worked out at 61.2 nM and the t½ amounted to 0 min. In [5], this molecule came in with a Kd of 4420 nM and a t½ of 0.2 min.

B5: VH-Y112H (antibody, V domains shown)
VH: B1 VH with Y112H
VL: not shown
notes: His variant of 300N
With B5, in assay [1], the “KD ratio pH 5.75/pH 7.2” value stood at 4.52 and the “t½ ratio pH 5.75/pH 7.2” value came to 0.01. Moreover, in assay [2], the “IC50 … 2 nM hPCSK9-D374Y-mmH” value worked out at 4.7 nM. Also, in [3], the “IC50 … 50 nM MfPCSK9-mmH” value was 21.2 nM. Moreover, in [4], the Kd turned out to be 12.3 nM and the t½ is 5 min. Also, in [5], the Kd is 55.7 nM and the t½ turned out to be 0.04 min. For the same molecule, in [6], the IC50 was determined as 0.506 nM.

B6: VK-T99H (antibody, V domains shown)
VH: B1 VH
VL: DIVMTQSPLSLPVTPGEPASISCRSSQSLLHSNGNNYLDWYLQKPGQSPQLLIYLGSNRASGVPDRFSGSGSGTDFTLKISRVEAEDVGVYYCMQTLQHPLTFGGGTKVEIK
notes: His variant of 300N
On to B6, for which, in [1], the “KD ratio pH 5.75/pH 7.2” value came to 1.25 and the “t½ ratio pH 5.75/pH 7.2” value was 0.1. In assay [4], the dissociation constant Kd turned out to be 9.63 nM and the t½ came out at 5 min. In assay [5], this molecule registered a Kd of 12 nM and a t½ of 0.4 min.

B7: VH-D108H (antibody, V domains shown)
VH: B1 VH with D108H
VL: not shown
notes: His variant of 300N
Take B7: in assay [1], the “KD ratio pH 5.75/pH 7.2” value worked out at 1.73 and the “t½ ratio pH 5.75/pH 7.2” value is 0.24. For the same molecule, the “IC50 … 2 nM hPCSK9-D374Y-mmH” value in [2] is 2.6 nM. Moreover, the “IC50 … 50 nM MfPCSK9-mmH” value in [3] turned out to be 12.7 nM. In addition, in assay [4], binding was put at a Kd of 2.69 nM and the t½ was determined as 28 min. In assay [5], this molecule came in with a dissociation constant Kd of 4.67 nM and a t½ of 7 min. This molecule also displayed an IC50 in assay [6] of 0.334 nM.

B8: VH-V101H (antibody, V domains shown)
VH: B1 VH with V101H
VL: not shown
notes: His variant of 300N
Regarding B8, in assay [1], the “KD ratio pH 5.75/pH 7.2” value came to 1.43 and the “t½ ratio pH 5.75/pH 7.2” value turned out to be 0.14. Further, the “IC50 … 2 nM hPCSK9-D374Y-mmH” value in assay [2] is 4.7 nM. The “IC50 … 50 nM MfPCSK9-mmH” value in assay [3] is 17.2 nM. In [4], this molecule yielded a Kd of 7.33 nM and a t½ of 25 min. Also, in assay [5], the Kd worked out at 10.5 nM and the t½ was 3 min. The molecule also displayed a half-inhibitory concentration (IC50) in assay [6] of 0.857 nM.

B9: VH-V104H (antibody, V domains shown)
VH: B1 VH with V104H
VL: not shown
notes: His variant of 300N
On to B9, for which, in [1], the “KD ratio pH 5.75/pH 7.2” value came out at 8.51 and the “t½ ratio pH 5.75/pH 7.2” value was determined as 0.04. In assay [2], the “IC50 … 2 nM hPCSK9-D374Y-mmH” value is 4.7 nM. The “IC50 … 50 nM MfPCSK9-mmH” value in assay [3] worked out at 15.8 nM. In [4], binding was characterised by a dissociation constant (Kd) of 5.6 nM and the t½ came out at 11 min. In [5], this molecule displayed a dissociation constant (Kd) of 47.6 nM and a t½ of 0.4 min. Also, the IC50 in [6] was 0.331 nM.

B10: VH-M107H (antibody, V domains shown)
VH: B1 VH with M107H
VL: not shown
notes: His variant of 300N
As for B10, in [1], the “KD ratio pH 5.75/pH 7.2” value came out at 4.02 and the “t½ ratio pH 5.75/pH 7.2” value worked out at 0.02. For the same molecule, the “IC50 … 2 nM hPCSK9-D374Y-mmH” value in [2] came out at 4.6 nM. The “IC50 … 50 nM MfPCSK9-mmH” value in assay [3] was 15.9 nM. In [4], binding was characterised by a dissociation constant (Kd) of 7.34 nM and the t½ stood at 13 min. Further, in [5], the Kd turned out to be 29.5 nM and the t½ worked out at 0.2 min. The same molecule yielded a concentration for half-maximal inhibition (IC50) in assay [6] of 0.704 nM.

B11: 316P(v2) (antibody, IgG4, V domains shown)
VH: EVQLVESGGGLVQPGGSLRLSCAASGFTFNNYAMNWVRQAPGKGLDWVSTISGSGGTTNYADSVKGRFIISRDSSKHTLYLQMNSLRAEDTAVYYCAKDSNWGNFDLWGRGTLVTVSS
VL: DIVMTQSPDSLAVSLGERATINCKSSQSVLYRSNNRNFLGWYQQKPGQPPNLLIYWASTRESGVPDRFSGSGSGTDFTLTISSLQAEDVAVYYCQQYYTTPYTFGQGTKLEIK
notes: also called 316(v2)
With B11, in assay [9], the “KD ratio pH 6.0/pH 7.4” value was determined as 0.41, the “ka ratio pH 6.0/pH 7.4” value is 1.25, the “kd ratio pH 6.0/pH 7.4” value is 0.51 and the “t½ ratio pH 6.0/pH 7.4” value came to 1.96. Moreover, in assay [10], binding was characterised by a dissociation constant (Kd) of 0.566 nM, the koff is 0.000292 s⁻¹, the kon turned out to be 517000 M⁻¹ s⁻¹ and the t½ was 39.5 min. In assay [11], this molecule gave a Kd of 0.23 nM, an off-rate constant (koff) of 0.000149 s⁻¹, an on-rate (kon) of 649000 M⁻¹ s⁻¹ and a t½ of 77.5 min.
